From patent US10753947B2, “Methods for screening voltage-gated proteins” (D.E. Shaw Research, LLC, priority 2012, dated 2020)
Read-outs that look alike come from different tables or passages of the source.

Key:
[1] = tested on: Kv2.1 R293S/R294S/R300S (R-1S/R0S/R2S); experiment: Omega currents (Iω) of Kv2.1 R-1S/R0S/R2S in Xenopus oocytes, two electrode voltage-clamp; format: cell-based, human
Text: The coding cDNAs of KV2.1 “wild-type” (hereinafter WT) base construct (hKv2.1-m7-c3 is human Kv2.1, residues 1-858, mutated to confer AgTx2 sensitivity and to remove extracellular cysteine residues) was synthesized (Entelchon GmbH) and cloned into the high expression vector pBSTA.
Mutations Kv2.1 R294N (hereinafter R0N), Kv2.1 R300S (hereinafter R2S), Kv2.1 R294C/R300S (hereinafter R0C/R2S), Kv2.1 R293S/R294S (hereinafter R-1S/R0S), Kv2.1 R293S/R294C (hereinafter R-1S/R0C), Kv2.1 R293S/R294S/R300S (hereinafter R-1S/R0S/R2S), Kv2.1 R293S/R294C/R300S (hereinafter R-1S/R0C/R2S) were introduced using the QuikChange® Lightning Site-Directed Mutagenesis Kit (Stratagene) with mutagenic primers according to the manufacturer's instructions. All constructs were checked by restriction site mapping and sequencing.
Transcripted cRNA was produced using the mMessage mMachine kit (Ambion Inc.). Two to four days past injection of cRNA into stage V-VI Xenopus oocytes (NASCO) potassium currents through the alpha pore (Iα) were recorded with the two electrode voltage-clamp technique making use of a TURBO TEC-05× amplifier (npi electronic GmbH). Currents were filtered at 10 kHz and sampled at 20 kHz. The bath solution contained (in mM): NaCl 96, KCl 2, CaCl2 1, MgCl2 1 and HEPES 5 (pH 7.5). Voltage-recording and current-injecting microelectrodes were filled with 3 M KCl and pulled to have resistances between 0.2 and 1 MΩ (see Stork et al., 2007). The pClamp software package v.10.1 (Molecular Devices, Inc.) was used for data acquisition and analysis.
Recording of alpha currents (Iα): Pulses of 100 ms were applied from ˜60 to +60 mV in 10 mV steps at 1 Hz from a holding potential of ˜80 mV to the Kv2.1 channel constructs to measure alpha currents (Iα). Passive leak currents were subtracted online using a P/4 procedure: pClamp software generates a series of scaled-down replica sweeps of the main stimulus waveform. […] The cell's response to the subsweeps is used to calculate the degree of passive cellular current leak. This is then subtracted from acquired data on the associated input signal. Recording of omega currents (Iω): Pulses of 10 ms were applied from a holding potential of ˜80 to ˜300 mV in 20 mV steps at 0.3 Hz to the Kv2.1 channel constructs. Iω were recorded without leak subtraction.
AgTx2 (Sigma Aldrich) was reconstituted according to manufacturer's instructions with 10 mM Tris, pH 7.5, containing 100 mM sodium chloride, 0.1% bovine serum albumin, and 1 mM EDTA. LaCl3 was from Sigma Aldrich; MTSEA, MTSES and MTSET were from Biotium.
La^3+, AgTx2, MTSEA, MTSES and MTSET and were applied to Xenopus oocytes by means of a fast perfusion technique (ScreeningTool as described by Baburin et al., 2006). Origin software v.7.0 (OriginLab Corp.) was employed for data analysis. Inhibition of inward currents was defined as 1−Iω,drug/Iω,control, where Iω,drug is the current response in the presence of a given concentration of lanthanum (La^3+) and Iω, control is the control current through the omega pore. The concentration-inhibition curve was fitted using the Hill equation: Iω,drug/Iω,control=A+[…] where IC50 is the concentration at which Iω inhibition is half-maximal, C is the applied La^3+ concentration, A is the fraction of Iω current that blocked and nH is the Hill coefficient. Data are given as mean±SE (n=number of experiments).

Kv1.3 = Kv1.3 (Homo sapiens, UniProt P22001); conditions: cited from earlier work
Kv2.1 = target: T1, Kv2.1 (Homo sapiens, UniProt Q14721); conditions: cited from earlier work; for IC50: Table 5, read-out: IC50, channel Kv2.1
T1 sequence (Q14721 1-858): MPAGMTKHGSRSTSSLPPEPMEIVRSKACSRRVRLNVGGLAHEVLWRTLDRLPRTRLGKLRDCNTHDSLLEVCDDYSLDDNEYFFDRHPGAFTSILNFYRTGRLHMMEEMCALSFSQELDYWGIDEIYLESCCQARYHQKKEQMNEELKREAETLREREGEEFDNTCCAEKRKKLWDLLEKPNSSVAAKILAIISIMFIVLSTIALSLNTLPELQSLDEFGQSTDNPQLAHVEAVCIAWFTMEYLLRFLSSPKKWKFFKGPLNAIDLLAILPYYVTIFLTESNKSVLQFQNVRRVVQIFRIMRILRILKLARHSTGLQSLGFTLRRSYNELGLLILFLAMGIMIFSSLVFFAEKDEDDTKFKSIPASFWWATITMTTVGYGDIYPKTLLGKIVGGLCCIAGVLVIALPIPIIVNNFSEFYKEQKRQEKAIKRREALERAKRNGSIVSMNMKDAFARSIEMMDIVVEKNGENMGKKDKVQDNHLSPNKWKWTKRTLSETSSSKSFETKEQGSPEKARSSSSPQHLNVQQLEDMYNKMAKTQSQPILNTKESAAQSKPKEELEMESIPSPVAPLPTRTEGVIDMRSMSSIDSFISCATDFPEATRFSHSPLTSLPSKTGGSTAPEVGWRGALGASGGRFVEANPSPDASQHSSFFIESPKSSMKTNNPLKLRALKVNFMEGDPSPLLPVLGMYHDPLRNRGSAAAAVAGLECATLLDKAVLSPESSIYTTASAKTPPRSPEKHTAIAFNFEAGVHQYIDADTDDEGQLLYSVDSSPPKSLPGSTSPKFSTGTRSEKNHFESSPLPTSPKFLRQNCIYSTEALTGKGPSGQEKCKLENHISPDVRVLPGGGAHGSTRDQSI

Sequence of Kv1.3 (P22001 whole entry): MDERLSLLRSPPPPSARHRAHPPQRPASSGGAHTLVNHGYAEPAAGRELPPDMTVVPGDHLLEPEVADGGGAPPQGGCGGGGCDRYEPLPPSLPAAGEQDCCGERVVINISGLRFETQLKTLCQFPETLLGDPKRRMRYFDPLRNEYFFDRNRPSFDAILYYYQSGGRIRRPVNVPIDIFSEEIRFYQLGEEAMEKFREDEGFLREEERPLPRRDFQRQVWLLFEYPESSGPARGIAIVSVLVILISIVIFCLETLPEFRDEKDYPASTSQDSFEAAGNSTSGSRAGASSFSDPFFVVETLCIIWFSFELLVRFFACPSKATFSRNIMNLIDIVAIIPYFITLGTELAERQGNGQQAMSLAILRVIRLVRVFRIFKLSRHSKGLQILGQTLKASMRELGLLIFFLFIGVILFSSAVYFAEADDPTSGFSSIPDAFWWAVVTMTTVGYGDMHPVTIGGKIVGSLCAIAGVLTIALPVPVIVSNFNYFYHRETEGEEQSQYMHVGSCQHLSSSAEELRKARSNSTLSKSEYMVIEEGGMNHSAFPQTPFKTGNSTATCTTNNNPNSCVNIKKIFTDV

Agitotoxin-2 (GVPINVSCTGSPQCIKPCKDAGMRFGKCMNRKCHCTPK) [AgTx2]
Inhibition of inward currents at negative potentials (Iω) ([1]; 10 nM AgTx2, after 5 minutes): not inhibited | IC50 (Kv1.3; Table 3, read-out: IC50 Values of Kv1.3 ion channel modulating agent): 0.004 nM | IC50 (Kv1.3; Table 5, read-out: IC50, channel Kv1.3): 0.004 nM | Sensitivity of Kv1.3 to the scorpion toxin (Kv1.3; text b541): sensitive | IC50 (Kv2.1): > 2000 nM | Sensitivity of Kv2.1 to the scorpion toxin (Kv2.1; text b541): insensitive

Guangxitoxin (EGECGGFWWKCGSGKPACCPKYVCSPKWGLCNFPMP) [GxTx-1E]
Effect on omega current (Iω) ([1]; 100 nM GxTx-1E, 5 minutes application): enhanced | IC50, channel Kv1.3 (Kv1.3; Table 5, result in words): No effect | IC50 (Kv2.1): 2 nM
